As usually defined, the Km is the substrate concentration at which the rate is half of its maximum. For orientation: kcat means the number of substrate molecules converted per active site and unit of time at saturation.

Among the data in US6492131B1, “Class I-type lysyl-TRNA synthetase” (Yale University, priority 1997, dated 2002) are Km and kcat values, retold here.

Substrate in the series: NCCCC[C@H](N)C(=O)O
Kind of series: Kinetic characterization of LysRS: aminoacylation of M. maripaludis total tRNA with lysine. The series is classed as biochemical, Methanococcus maripaludis. To be noted: other: purified native LysRS 5 nM, 37° C., pH 7.2. An excerpt:
To investigate the formation of Lys-tRNA in cell-free extracts prepared from M. maripaludis, (^14C) lysine and homologous total TRNA were used as substrates (6). […] This was confirmed by the observation that (^14C)Lys-tRNA synthesis was inhibited by only one of the 20 canonical amino acids, lysine (FIG. 1). This is consistent with the presence of LysRS, since Lys-tRNA synthesis via a mischarged tRNA would result in a non-labeled amino acid other than lysine being able to inhibit lysylation of tRNA. On the basis of these observations LysRS from M. maripaludis was purified. By standard chromatographic procedures (8), a single 62-kD protein was isolated, which was purified to homogeneity as judged by both silver staining after denaturing polyacrylamide gel electrophoresis (SDS-PAGE) and the appearance of a single symmetrical peak during size exclusion chromatography. […] The enzyme could acylate unfractionated tRNA with lysine to the same degree as the M. maripaludis crude extract (FIG. 1), confirming that the purified protein is LysRS. […] These modified nucleotides have previously been detected at position 34 in all known tRNA^Glu and tRNA^Lys isoacceptors (13).
6. […]
9. […] Sampling and quantification were as described (K. -W. Hong et al., EMBO J. 15, 1983 (1996)).

B1: M. maripaludis LysRS (Methanococcus maripaludis) (protein)
chain: MHWADATSEKIMKKRNAEEYVVSSGITPSGHIHIGNARETLTADAVYKGMLKKGAEAKLIFIADDYDPLRKLYPFLPKEFEKYIGMPLSEIPCPQGCCKSYADHFLMPFLNSLEDLGVEITTHRANECYKAGMYNEAIITALENRLKIKELLDSYRKEPLADNWYPLNVVCEKCGKMHETKVTSYNSEDKTITYVCKCGFENTVQPFNGIGKLPWRVDWPARWNIFGVTAEPMGKDHAASGGSYDTGIKIARQIFNYQAPEKMVYEWIQLKIGDKAMPMSSSSGVVFAVKDWTEICHPEVLRFLILKGKPTKHIDFDLKAISNLVDDYDELERKYFELIEKQKTEELNDNENEKISLYELVTPKIPERLPLQVAYRFCSIIAQIALDKETQKIDMERVFDILGRNGYNPAEFSEYDKSRLEKRLYMSKKWASDYGENLEINDFEQAKEQYETLSEEQKAWLKAFSKEVENIEIDANTIHELMYETATKLNLAPKEAFVASYKILLGKNYGPKLGSFLASLKKEFVIGRFNLTE
For the protein B1, the Km is 2.2 µM and the catalytic constant (kcat) worked out at 1.6 s⁻¹.
